Experimental findings from patent publication US10233474B2, “Materials and methods for producing 6-carbon monomers” (INVISTA North America S.á.r.l., priority 2014, dated 2019) are described below.

Common to all, as to assay type: biochemical
A short description of data set [1]: ω-transaminase activity, forward direction (adipate semialdehyde to 6-aminohexanoate). The conditions noted are these: cell free extract; 10 mM adipate semialdehyde, 10 mM L-alanine, pH 7.5, 25° C., 4 h; RP-HPLC. How it is done:
(§1) A nucleotide sequence encoding a His-tag was added to the nucleic acid sequences from Chromobacterium violaceum, Pseudomonas aeruginosa, Pseudomonas syringae, Rhodobacter sphaeroides, and Vibrio fluvialis encoding the ω-transaminases of SEQ ID NOs: 7, 8, 9, 10 and 12, respectively (see FIG. 6) such that N-terminal HIS tagged ω-transaminases could be produced. Each of the resulting modified genes was cloned into a pET21a expression vector under control of the T7 promoter and each expression vector was transformed into a BL21[DE3] E. coli host. The resulting recombinant E. coli strains were cultivated at 37° C. in a 250 mL shake flask culture containing 50 mL LB media and antibiotic selection pressure, with shaking at 230 rpm. Each culture was induced overnight at 16° C. using 1 mM IPTG.
(§2) The pellet from each induced shake flask culture was harvested via centrifugation. Each pellet was resuspended and lysed via sonication. The cell debris was separated from the supernatant via centrifugation and the cell free extract was used immediately in enzyme activity assays.
Enzyme activity in the forward direction (i.e., adipate semialdehyde to 6-aminohexanoate) was confirmed for the transaminases of SEQ ID NO 7, SEQ ID NO 8, SEQ ID NO 9, SEQ ID NO 10 and SEQ ID NO 12. Enzyme activity assays were performed in a buffer composed of a final concentration of 50 mM HEPES buffer (pH=7.5), 10 mM adipate semialdehyde, 10 mM L-alanine and 100 μM pyridoxyl 5′ phosphate. Each enzyme activity assay reaction was initiated by adding a cell free extract of the ω-transaminase gene product or the empty vector control to the assay buffer containing the adipate semialdehyde and incubated at 25° C. for 4 h, with shaking at 250 rpm. The formation of pyruvate was quantified via RP-HPLC.

The nature of data set [2]: ω-transaminase activity, reverse direction (6-aminohexanoate to adipate semialdehyde). As to conditions: cell free extract; 10 mM 6-aminohexanoate, 10 mM pyruvate, pH 7.5, 25° C., 24 h; RP-HPLC. The protocol:
as §1, §2
Enzyme activity assays in the reverse direction (i.e., 6-aminohexanoate to adipate semialdehyde) were performed in a buffer composed of a final concentration of 50 mM HEPES buffer (pH=7.5), 10 mM 6-aminohexanoate, 10 mM pyruvate and […] pyridoxyl 5′ phosphate. Each enzyme activity assay reaction was initiated by adding cell free extract of the ω-transaminase gene product or the empty vector control to the assay buffer containing the 6-aminohexanoate and incubated at 25° C. for 24 h, with shaking at 250 rpm. The formation of L-alanine from pyruvate was quantified via RP-HPLC.

A short description of data set [3]: carboxylate reductase activity (adipate semialdehyde to hexanedial). As to conditions: purified enzyme with sfp phosphopantetheine transferase; 2 mM adipate semialdehyde, pH 7.5, room temperature, 20 min. How it is done:
The N-terminal His-tagged carboxylate reductase of SEQ ID NO 6 (see Example 2 and FIG. 6) was assayed using adipate semialdehyde as substrate. The enzyme activity assay was performed in triplicate in a buffer composed of a final concentration of 50 mM HEPES buffer (pH=7.5), 2 mM adipate semialdehyde, 10 mM MgCl2, 1 mM ATP and 1 mM NADPH. The enzyme activity assay reaction was initiated by adding purified carboxylate reductase and phosphopantetheine transferase or the empty vector control to the assay buffer containing the adipate semialdehyde and then incubated at room temperature for 20 min. The consumption of NADPH was monitored by absorbance at 340 nm.

As to “SEQ ID NO 10: Rhodobacter sphaeroides ω-transaminase, N-terminal His-tagged”, in data set [1], the “ω-transaminase activity: conversion of L-alanine to pyruvate with adipate semialdehyde as substrate, against the empty vector control” value is given as “accepted adipate semialdehyde as substrate”. Also, in data set [2], the “ω-transaminase activity: conversion of pyruvate to L-alanine with 6-aminohexanoate as substrate, against the empty vector control” value is “accepted 6-aminohexanote as substrate”.

B1: SEQ ID NO 9: Pseudomonas syringae ω-transaminase, N-terminal His-tagged (protein, listed as Pseudomonas syringae)
chain: MSANNPQTLEWQALSSEHHLAPFSDYKQLKEKGPRIITRAEGVYLWDSEGNKILDGMSGLWCVAIGYGREELADAASKQMRELPYYNLFFQTAHPPVLELAKAISDIAPEGMNHVFFTGSGSEGNDTMLRMVRHYWALKGQPNKKTIISRVNGYHGSTVAGASLGGMTYMHEQGDLPIPGVVHIPQPYWFGEGGDMTPDEFGIWAAEQLEKKILELGVENVGAFIAEPIQGAGGVIVPPDSYWPKIKEILSRYDILFAADEVICGFGRTSEWFGSDFYGLRPDMMTIAKGLTSGYVPMGGLIVRDEIVAVLNEGGDFNHGFTYSGHPVAAAVALENIRILREEKIVERVRSETAPYLQKRLRELSDHPLVGEVRGVGLLGAIELVKDKTTRERYTDKGAGMICRTFCFDNGLIMRAVGDTMIIAPPLVISFAQIDELVEKARTCLDLTLAVLQG
modifications: N-terminal His tag
notes: Pseudomonas syringae ω-transaminase, N-terminal His-tagged
As for B1, the “ω-transaminase activity: conversion of L-alanine to pyruvate with adipate semialdehyde as substrate, against the empty vector control” value in data set [1] is reported as “accepted adipate semialdehyde as substrate”. In data set [2], the “ω-transaminase activity: conversion of pyruvate to L-alanine with 6-aminohexanoate as substrate, against the empty vector control” value is listed as “accepted 6-aminohexanote as substrate”.

B2: SEQ ID NO 7: Chromobacterium violaceum ω-transaminase, N-terminal His-tagged (protein, listed as Chromobacterium violaceum)
chain: MQKQRTTSQWRELDAAHHLHPFTDTASLNQAGARVMTRGEGVYLWDSEGNKIIDGMAGLWCVNVGYGRKDFAEAARRQMEELPFYNTFFKTTHPAVVELSSLLAEVTPAGFDRVFYTNSGSESVDTMIRMVRRYWDVQGKPEKKTLIGRWNGYHGSTIGGASLGGMKYMHEQGDLPIPGMAHIEQPWWYKHGKDMTPDEFGVVAARWLEEKILEIGADKVAAFVGEPIQGAGGVIVPPATYWPEIERICRKYDVLLVADEVICGFGRTGEWFGHQHFGFQPDLFTAAKGLSSGYLPIGAVFVGKRVAEGLIAGGDFNHGFTYSGHPVCAAVAHANVAALRDEGIVQRVKDDIGPYMQKRWRETFSRFEHVDDVRGVGMVQAFTLVKNKAKRELFPDFGEIGTLCRDIFFRNNLIMRACGDHIVSAPPLVMTRAEVDEMLAVAERCLEEFEQTLKARGLA
modifications: N-terminal His tag
notes: Chromobacterium violaceum ω-transaminase, N-terminal His-tagged
For B2, the “ω-transaminase activity: conversion of L-alanine to pyruvate with adipate semialdehyde as substrate, against the empty vector control” value in data set [1] is given as “accepted adipate semialdehyde as substrate”. The “ω-transaminase activity: conversion of pyruvate to L-alanine with 6-aminohexanoate as substrate, against the empty vector control” value in data set [2] is reported as “accepted 6-aminohexanote as substrate”.

B3: SEQ ID NO: 6: Segniliparus rotundus carboxylate reductase, N-terminal His-tagged (protein, listed as Segniliparus rotundus)
chain: MTQSHTQGPQASAAHSRLARRAAELLATDPQAAATLPDPEVVRQATRPGLRLAERVDAILSGYADRPALGQRSFQTVKDPITGRSSVELLPTFDTITYRELRERATAIASDLAHHPQAPAKPGDFLASIGFISVDYVAIDIAGVFAGLTAVPLQTGATLATLTAITAETAPTLFAASIEHLPTAVDAVLATPSVRRLLVFDYRAGSDEDREAVEAAKRKIADAGSSVLVDVLDEVIARGKSAPKAPLPPATDAGDDSLSLLIYTSGSTGTPKGAMYPERNVAHFWGGVWAAAFDEDAAPPVPAINITFLPLSHVASRLSLMPTLARGGLMHFVAKSDLSTLFEDLKLARPTNLFLVPRVVEMLYQHYQSELDRRGVQDGTREAEAVKDDLRTGLLGGRILTAGFGSAPLSAELAGFIESLLQIHLVDGYGSTEAGPVWRDGYLVKPPVTDYKLIDVPELGYFSTDSPHPRGELAIKTQTILPGYYKRPETTAEVFDEDGFYLTGDVVAQIGPEQFAYVDRRKNVLKLSQGEFVTLAKLEAAYSSSPLVRQLFVYGSSERSYLLAVIVPTPDALKKFGVGEAAKAALGESLQKIARDEGLQSYEVPRDFIIETDPFTVENGLLSDARKSLRPKLKEHYGERLEAMYKELADGQANELRDIRRGVQQRPTLETVRRAAAAMLGASAAEIKPDAHFTDLGGDSLSALTFSNFLHDLFEVDVPVGVIVSAANTLGSVAEHIDAQLAGGRARPTFATVHGKGSTTIKASDLTLDKFIDEQTLEAAKHLPKPADPPRTVLLTGANGWLGRFLALEWLERLAPAGGKLITIVRGKDAAQAKARLDAAYESGDPKLAGHYQDLAATTLEVLAGDFSEPRLGLDEATWNRLADEVDFISHPGALVNHVLPYNQLFGPNVAGVAEIIKLAITTRIKPVTYLSTVAVAAGVEPSALDEDGDIRTVSAERSVDEGYANGYGNSKWGGEVLLREAHDRTGLPVRVFRSDMILAHQKYTGQVNATDQFTRLVQSLLATGLAPKSFYELDAQGNRQRAHYDGIPVDFTAESITTLGGDGLEGYRSYNVFNPHRDGVGLDEFVDWLIEAGHPITRIDDYDQWLSRFETSLRGLPESKRQASVLPLLHAFARPGPAVDGSPFRNTVFRTDVQKAKIGAEHDIPHLGKALVLKYADDIKQLGLL
modifications: N-terminal His tag
notes: Segniliparus rotundus carboxylate reductase, N-terminal His-tagged
In the case of B3, the “carboxylate reductase activity: consumption of NADPH (absorbance at 340 nm) with adipate semialdehyde as substrate, against the empty vector control” value in data set [3] is “accepted adipate semialdehyde as substrate”.

B4: SEQ ID NO 8: Pseudomonas aeruginosa ω-transaminase, N-terminal His-tagged (protein, listed as Pseudomonas aeruginosa)
chain: MNARLHATSPLGDADLVRADQAHYMHGYHVFDDHRVNGSLNIAAGDGAYIYDTAGNRYLDAVGGMWCTNIGLGREEMARTVAEQTRLLAYSNPFCDMANPRAIELCRKLAELAPGDLDHVFLTTGGSTAVDTAIRLMHYYQNCRGKRAKKHVITRINAYHGSTFLGMSLGGKSADRPAEFDFLDERIHHLACPYYYRAPEGLGEAEFLDGLVDEFERKILELGADRVGAFISEPVFGSGGVIVPPAGYHRRMWELCQRYDVLYISDEVVTSFGRLGHFFASQAVFGVQPDIILTAKGLTSGYQPLGACIFSRRIWEVIAEPDKGRCFSHGFTYSGHPVACAAALKNIEIIEREGLLAHADEVGRYFEERLQSLRDLPIVGDVRGMRFMACVEFVADKASKALFPESLNIGEWVHLRAQKRGLLVRPIVHLNVMSPPLILTREQVDTVVRVLRESIEETVEDLVRAGHR
modifications: N-terminal His tag
notes: Pseudomonas aeruginosa ω-transaminase, N-terminal His-tagged
Take B4: in data set [1], the “ω-transaminase activity: conversion of L-alanine to pyruvate with adipate semialdehyde as substrate, against the empty vector control” value was “accepted adipate semialdehyde as substrate”.

B5: SEQ ID NO 12: Vibrio fluvialis ω-transaminase, N-terminal His-tagged (protein, listed as Vibrio fluvialis)
chain: MNKPQSWEARAETYSLYGFTDMPSLHQRGTVVVTHGEGPYIVDVNGRRYLDANSGLWNMVAGFDHKGLIDAAKAQYERFPGYHAFFGRMSDQTVMLSEKLVEVSPFDSGRVFYTNSGSEANDTMVKMLWFLHAAEGKPQKRKILTRWNAYHGVTAVSASMTGKPYNSVFGLPLPGFVHLTCPHYWRYGEEGETEEQFVARLARELEETIQREGADTIAGFFAEPVMGAGGVIPPAKGYFQAILPILRKYDIPVISDEVICGFGRTGNTWGCVTYDFTPDAIISSKNLTAGFFPMGAVILGPELSKRLETAIEAIEEFPHGFTASGHPVGCAIALKAIDVVMNEGLAENVRRLAPRFEERLKHIAERPNIGEYRGIGFMWALEAVKDKASKTPFDGNLSVSERIANTCTDLGLICRPLGQSVVLCPPFILTEAQMDEMFDKLEKALDKVFAEVA
modifications: N-terminal His tag
notes: Vibrio fluvialis ω-transaminase, N-terminal His-tagged
Consider B5, for which the “ω-transaminase activity: conversion of L-alanine to pyruvate with adipate semialdehyde as substrate, against the empty vector control” value in data set [1] was “accepted adipate semialdehyde as substrate”. The “ω-transaminase activity: conversion of pyruvate to L-alanine with 6-aminohexanoate as substrate, against the empty vector control” value in data set [2] was “accepted 6-aminohexanote as substrate”.
